In test [1] the target is T1, hIL-4Rα on cells (human, UniProt P24394 26-825).
T1 sequence: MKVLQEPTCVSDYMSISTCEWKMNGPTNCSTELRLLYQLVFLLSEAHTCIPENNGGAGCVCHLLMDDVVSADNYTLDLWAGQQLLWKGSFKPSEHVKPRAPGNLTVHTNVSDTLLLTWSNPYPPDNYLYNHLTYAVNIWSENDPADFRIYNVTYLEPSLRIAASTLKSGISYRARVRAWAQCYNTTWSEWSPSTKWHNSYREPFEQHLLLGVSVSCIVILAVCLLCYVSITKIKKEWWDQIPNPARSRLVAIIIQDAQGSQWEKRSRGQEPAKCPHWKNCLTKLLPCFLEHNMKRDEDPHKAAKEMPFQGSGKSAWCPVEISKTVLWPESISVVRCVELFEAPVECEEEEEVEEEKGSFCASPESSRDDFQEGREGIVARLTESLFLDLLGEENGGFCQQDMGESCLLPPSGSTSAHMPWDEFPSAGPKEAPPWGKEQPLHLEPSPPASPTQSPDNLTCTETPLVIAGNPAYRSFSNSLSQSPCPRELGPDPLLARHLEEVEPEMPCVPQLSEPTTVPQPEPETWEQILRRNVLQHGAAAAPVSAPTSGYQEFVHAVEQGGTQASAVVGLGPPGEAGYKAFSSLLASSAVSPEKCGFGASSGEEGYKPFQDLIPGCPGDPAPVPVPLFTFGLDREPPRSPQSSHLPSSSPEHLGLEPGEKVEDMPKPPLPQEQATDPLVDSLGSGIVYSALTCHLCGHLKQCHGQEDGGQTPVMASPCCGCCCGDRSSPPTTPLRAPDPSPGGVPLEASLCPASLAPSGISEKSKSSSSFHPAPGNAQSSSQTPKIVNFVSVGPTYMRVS
The test can be described thus: FACS on HEK293 cells, competitor biotin-hIL-4.
Procedure: (§1) Briefly, HEK293 previously transduced to stably express both hIL-13Rα and hIL-4Rα were cultured and harvested. Cells were seeded at 200,000 cells in 100 uL per well. Cells were washed and the supernatant discarded. […] The cells were stained in this mixture at 4° C. for 1 hour. […] Cells were incubated 4° C. for 1 hour, protected from light. Cells were then washed and the MFI of cells in each well were recorded by FACS using a BD FACSCanto II. Subsequent data were analyzed using GraphPad Prism.
(§2) The values reflect absolute IC₅₀ measurements.

In test [2] the target is T1, hIL-4Rα on cells. The test can be described thus: cell-based or functional assay.
Test [3] deals with T1, hIL-4Rα on cells. The test can be described thus: FACS on HEK293 cells, competitor biotin-hIL-13.
Procedure: as §1, §2
For test [4], the target named is T1, hIL-4Rα on cells. The test can be described thus: cell-based or functional assay. The source holds these as a separate data set.
In test [5] the target is T1, hIL-4Rα on cells. The test can be described thus: cell-based or functional assay. The source holds these as a separate data set.

Where a chain is given by its changes, count along the chain named.

B1: Construct 13 (mAb422) with IgG1 YTE LALA heavy chain constant region (antibody, V domains shown)
VH: EVQLVESGGGLEQPGGSLRLSCAGSGFTFRDFAMTWVRQAPGKGLEWVSSVSGSGGNTYYADSVKGRFTISRDNSKNTLYLQMNSLRAEDTAVYYCAKDRLSVTVRPRYYGLDVWGQGTTVTVSS
VL: DIVMTQSPLSLPVTPGEPASISCRSSQSVLYSIGYNYVDWYLQKSGQSPQLLIYLGNKRASGVPDRFSGSGSGTDFTLKISRVEAEDVGFYYCMQSLTSPYTFGQGTKLEIK
For orientation: IC50 means the concentration at which inhibition is half-maximal. Low values mean greater potency in that assay, high ones weaker potency in that assay. In the test with hIL-4Rα on cells [1], B1 yielded an IC50 of 0.238 nM. Also, in the test with hIL-4Rα on cells [2], the “Inhibition of IL-4 induced TF-1 Proliferation IC50” value worked out at 0.038 nM and the “Inhibition of IL-13 induced TF-1 Proliferation IC50” value came out at 0.119 nM. The IC50 with hIL-4Rα on cells [3] was determined as 0.235 nM. In the test with hIL-4Rα on cells [4], the “Inhibition of IL-4 induced TARC IC50” value is 0.179 nM and the “Inhibition of IL-13 induced TARC IC50” value came out at 0.261 nM. Moreover, in the test with hIL-4Rα on cells [5], the “Inhibition of IL-4 induced pSTAT6 IC50” value turned out to be 0.185 nM and the “Inhibition of IL-13 induced pSTAT6 IC50” value stood at 0.612 nM.

B2: Construct 24 (mAb432) with IgG1 YTE LALA heavy chain constant region (antibody, V domains shown)
VH: B1 VH with V51I, T58I, V103I, T104A
VL: B1 VL with R24T, S25A, V29L, Y35K, K58N, S61T
For the molecule B2, in the test with hIL-4Rα on cells [1], the IC50 was 0.234 nM. In the test with hIL-4Rα on cells [2], the “Inhibition of IL-4 induced TF-1 Proliferation IC50” value stood at 0.052 nM and the “Inhibition of IL-13 induced TF-1 Proliferation IC50” value came to 0.166 nM. The IC50 with hIL-4Rα on cells [3] was found to be 0.234 nM. Moreover, in the test with hIL-4Rα on cells [4], the “Inhibition of IL-4 induced TARC IC50” value was determined as 0.222 nM and the “Inhibition of IL-13 induced TARC IC50” value stood at 0.361 nM. In the test with hIL-4Rα on cells [5], the “Inhibition of IL-4 induced pSTAT6 IC50” value was 0.269 nM and the “Inhibition of IL-13 induced pSTAT6 IC50” value is 1.09 nM.

B3: Construct 31 (mAb443) with IgG1 YTE LALA heavy chain constant region (antibody, V domains shown)
VH: B1 VH with V51I, T58I
VL: B1 VL with V29L, I33N, V38L, N57S, K58N, S96A, T98Q, S99A
B3 gave an IC50 with hIL-4Rα on cells [1] of 0.279 nM. Moreover, in the test with hIL-4Rα on cells [2], the “Inhibition of IL-4 induced TF-1 Proliferation IC50” value was 0.058 nM and the “Inhibition of IL-13 induced TF-1 Proliferation IC50” value amounted to 0.175 nM. For the same molecule, the half-maximal inhibitory concentration (IC50) in the test with hIL-4Rα on cells [3] is 0.209 nM. For the same molecule, in the test with hIL-4Rα on cells [4], the “Inhibition of IL-4 induced TARC IC50” value was determined as 0.228 nM and the “Inhibition of IL-13 induced TARC IC50” value came to 0.456 nM. For the same molecule, in the test with hIL-4Rα on cells [5], the “Inhibition of IL-4 induced pSTAT6 IC50” value worked out at 0.452 nM and the “Inhibition of IL-13 induced pSTAT6 IC50” value stood at 0.916 nM.

B4: Construct 15 (mAb423) with IgG1 YTE LALA heavy chain constant region (antibody, V domains shown)
VH: B1 VH with V51I, T58I, V103K, V105I
VL: B1 VL with R24T, S25A, V29L
For B4, in the test with hIL-4Rα on cells [1], the concentration for half-maximal inhibition (IC50) was 0.23 nM. In the test with hIL-4Rα on cells [2], the “Inhibition of IL-4 induced TF-1 Proliferation IC50” value stood at 0.028 nM and the “Inhibition of IL-13 induced TF-1 Proliferation IC50” value was 0.117 nM. The IC50 with hIL-4Rα on cells [3] came to 0.204 nM. In addition, in the test with hIL-4Rα on cells [4], the “Inhibition of IL-4 induced TARC IC50” value stood at 0.127 nM and the “Inhibition of IL-13 induced TARC IC50” value is 0.212 nM. Further, in the test with hIL-4Rα on cells [5], the “Inhibition of IL-4 induced pSTAT6 IC50” value was 0.122 nM and the “Inhibition of IL-13 induced pSTAT6 IC50” value is 0.599 nM.

Values taken from patent US20260193366A1 (APOGEE THERAPEUTICS, published 2026).
